The Kd is a measure of binding affinity in units of concentration. Low values mean a tighter complex, high ones a looser complex.

Chain of His-tagged human IL-18BP (human) (O95998 31-194): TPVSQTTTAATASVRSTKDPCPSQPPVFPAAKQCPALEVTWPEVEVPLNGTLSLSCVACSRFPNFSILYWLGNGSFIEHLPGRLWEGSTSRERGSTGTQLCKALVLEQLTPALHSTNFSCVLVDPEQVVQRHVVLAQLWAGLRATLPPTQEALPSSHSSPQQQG
Chain of IL-18 WT (native sequence, SEQ ID NO: 1) (Q14116 37-193): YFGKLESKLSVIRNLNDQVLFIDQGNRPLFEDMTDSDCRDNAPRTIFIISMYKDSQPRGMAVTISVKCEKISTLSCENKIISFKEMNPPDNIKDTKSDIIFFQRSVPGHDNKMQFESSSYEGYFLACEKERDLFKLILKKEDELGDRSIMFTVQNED

This assay has as its target His-tagged human IL-18BP (human) (UniProt O95998). Put plainly: AlphaLISA of free IL-18BP after incubation with IL-18 dilutions. On the technique in general: Bead proximity is the source of the signal in Alpha formats.
For the substance “C142 (Y1M, E6K, V11I, C38A, K53A, T63A, C76A, C127A) (from UniProt Q14116 38-193) (ligand)”, the Kd is 2.25 nM.

With “C143 (V11I, C38A, K53A, C76A, C127A) (from UniProt Q14116 37-193) (ligand)”, the Kd came to 8.86 nM. Next, “C144 (V11I, C38A, K53A, T63A, C76A, C127A) (from UniProt Q14116 37-193) (ligand)”: 0.66 nM; “C145 (V11I, C38A, K53A, S55A, C76A, C127A) (from UniProt Q14116 37-193) (ligand)”: 9.74 nM; “C146 (SEQ ID NO: 79; V11I, C38A, M51G, K53A, C76A, C127A) (from UniProt Q14116 37-193) (ligand)”: 373 nM. As for “C147 (V11I, C38A, K53A, D54A, C76A, C127A) (from UniProt Q14116 37-193) (ligand)”, the Kd is 25.8 nM. For “C148 (F2A, V11I, C38A, K53A, C76A, C127A) (from UniProt Q14116 37-193) (ligand)”, the Kd came to 57.2 nM.

For “C149 (V11I, E31A, C38A, K53A, C76A, C127A) (from UniProt Q14116 37-193) (ligand)”, the Kd is 0.64 nM. In turn, “C150 (V11I, T34A, C38A, K53A, C76A, C127A) (from UniProt Q14116 37-193) (ligand)” showed a dissociation constant Kd of 1.24 nM.

In turn, “C151 (V11I, D35A, C38A, K53A, C76A, C127A) (from UniProt Q14116 37-193) (ligand)” registered an equilibrium dissociation constant (Kd) of 2.88 nM.

“C152 (V11I, S36A, C38A, K53A, C76A, C127A) (from UniProt Q14116 37-193) (ligand)” returned a dissociation constant Kd of 1.12 nM.

Substance “C153 (V11I, D37A, C38A, K53A, C76A, C127A) (from UniProt Q14116 37-193) (ligand)” yielded a Kd of 4.55 nM. Turning to “C154 (V11I, E31A, D37A, C38A, K53A, C76A, C127A) (from UniProt Q14116 37-193) (ligand)”, the Kd stood at 2.12 nM. As to “C155 (V11I, C38A, D40A, K53A, C76A, C127A) (from UniProt Q14116 37-193) (ligand)”, the Kd came to 0.74 nM. On to “C156 (V11I, C38A, N41A, K53A, C76A, C127A) (from UniProt Q14116 37-193) (ligand)”, for which the Kd was 18.5 nM. As to “C157 (V11I, C38A, K53A, C76A, C127A, D132A) (from UniProt Q14116 37-193) (ligand)”, the Kd stood at 13.7 nM.

“C158 (V11I, C38A, K53A, C76A, G108A, C127A) (from UniProt Q14116 37-193) (ligand)”: the Kd was 1.24 nM. For “C159 (V11I, C38A, K53A, C76A, H109A, C127A) (from UniProt Q14116 37-193) (ligand)”, the equilibrium dissociation constant (Kd) was determined as 0.55 nM. As for “C160 (V11I, C38A, K53A, C76A, D110A, C127A) (from UniProt Q14116 37-193) (ligand)”, the Kd was found to be 0.71 nM. In turn, “C161 (K8R, V11I, C38A, C76A, Q103E, C127A) (from UniProt Q14116 37-193) (ligand)” gave a Kd of 0.06 nM.

“C162 (K8E, V11I, C38A, C76A, Q103R, C127A) (from UniProt Q14116 37-193) (ligand)” showed a Kd of 0.85 nM.

In turn, “C163 (V11I, C38A, C76A, Q103K, C127A) (from UniProt Q14116 37-193) (ligand)” yielded an equilibrium dissociation constant (Kd) of 0.05 nM.

In turn, “C164 (V11I, C38A, S55H, C76A, C127A) (from UniProt Q14116 37-193) (ligand)” yielded a Kd of 0.08 nM. Take “C165 (V11I, C38A, S55R, C76A, C127A) (from UniProt Q14116 37-193) (ligand)”: the Kd was 0.15 nM. The substance “C166 (V11I, C38A, S55T, C76A, C127A) (from UniProt Q14116 37-193) (ligand)” registered a dissociation constant (Kd) of 0.02 nM.

Regarding “C167 (V11I, C38A, C76A, S105I, C127A) (from UniProt Q14116 37-193) (ligand)”, the dissociation constant (Kd) stood at 0.04 nM. Turning to “C168 (V11I, C38A, C76A, S105K, C127A) (from UniProt Q14116 37-193) (ligand)”, the Kd worked out at 0.05 nM. With “C174 (K8L, E6K, V11I, C38A, K53A, T63A, C76A, C127A) (from UniProt Q14116 37-193) (ligand)”, the Kd was found to be 0.14 nM.

As to “C176 (E6K, V11I, C38A, I49M, K53A, T63A, C76A, C127A) (from UniProt Q14116 37-193) (ligand)”, the dissociation constant Kd amounted to 25.8 nM. The substance “C184 (E6R, V11I, C38A, K53A, T63A, C76A, C127A) (from UniProt Q14116 37-193) (ligand)” registered a Kd of 5.46 nM. For the substance “IL-18 WT (native sequence, SEQ ID NO: 1) (from UniProt Q14116 37-193) (ligand)”, the Kd stood at 0.67 nM.

For the substance “IL-18 polypeptide SEQ ID NO: 35 (Y01G, F02A, E06K, M51G, K53A, D54A, S55A, T63A) (from UniProt Q14116 37-193) (ligand)”, the Kd stood at 969 nM. Next, “IL-18 polypeptide SEQ ID NO: 36 (K53A) (from UniProt Q14116 37-193) (ligand)”: 514 nM; “IL-18 polypeptide SEQ ID NO: 37 (S55A) (from UniProt Q14116 37-193) (ligand)”: 10.7 nM; “IL-18 polypeptide SEQ ID NO: 38 (E06K) (from UniProt Q14116 37-193) (ligand)”: 0.13 nM. The result for “IL-18 polypeptide SEQ ID NO: 39 (E06K, K53A) (from UniProt Q14116 37-193) (ligand)” reads 130 nM.

“IL-18 polypeptide SEQ ID NO: 40 (E06K, S55A) (from UniProt Q14116 37-193) (ligand)” registered a Kd of 12.3 nM. “IL-18 polypeptide SEQ ID NO: 41 (K53A, S55A) (from UniProt Q14116 37-193) (ligand)” yielded a Kd of 500 nM. The result for “IL-18 polypeptide SEQ ID NO: 42 (E06K, K53A, S55A, T63A) (from UniProt Q14116 37-193) (ligand)” reads 822 nM. In turn, “IL-18 polypeptide SEQ ID NO: 47 (C38S, C68S, C76S, C127S) (from UniProt Q14116 37-193) (ligand)” came in with a Kd of 0.03 nM. For the substance “IL-18 polypeptide SEQ ID NO: 48 (C38S, C68S, C76S, C127S, K70C) (from UniProt Q14116 37-193) (ligand)”, the Kd was found to be 0.21 nM. The result for “IL-18 polypeptide SEQ ID NO: 50 (E06K, K53A, T63A) (from UniProt Q14116 37-193) (ligand)” reads 340 nM; that for “IL-18 polypeptide SEQ ID NO: 51 (T63A) (from UniProt Q14116 37-193) (ligand)”, 2.59 nM.

“IL-18 polypeptide SEQ ID NO: 52 (E06K, T63A) (from UniProt Q14116 37-193) (ligand)” showed a dissociation constant (Kd) of 0.83 nM. “IL-18 polypeptide SEQ ID NO: 53 (K53A, T63A) (from UniProt Q14116 37-193) (ligand)” showed a Kd of 198 nM.

Substance “IL-18 polypeptide SEQ ID NO: 54 (E06K, K53A, C38S, C68S, C76S, C127S, K70C) (from UniProt Q14116 37-193) (ligand)” showed a Kd of 446 nM. “IL-18 polypeptide SEQ ID NO: 55 (K53A, T63A, C38S, C68S, C76S, C127S, K70C) (from UniProt Q14116 37-193) (ligand)” returned an equilibrium dissociation constant (Kd) of 913 nM. For the substance “IL-18 polypeptide SEQ ID NO: 56 (E6K, K53A, C38S, C76S, C127S) (from UniProt Q14116 37-193) (ligand)”, the dissociation constant (Kd) was found to be 436 nM. Consider “IL-18 polypeptide SEQ ID NO: 57 (E6K, C38S, K53A) (from UniProt Q14116 37-193) (ligand)”, for which the Kd came to 50.2 nM.
